Legend:
[1] = biological target: isolated REC^D58E domain of ComE (Streptococcus pneumoniae strain R6); assay: SEC
[2] = biological target: isolated REC^D58E domain of ComE (Streptococcus pneumoniae strain R6); assay: SAXS
[3] = biological target: full-length ComE^D58E from Streptococcus pneumoniae (Streptococcus pneumoniae strain R6); assay: SAXS

Substance | stoichiometry N [1] | stoichiometry N [2] | stoichiometry N [3]
isolated REC^D58E domain of ComE (domain or fragment) | 2 | 2 | –
full-length ComE^D58E from Streptococcus pneumoniae (natural protein) | – | – | 2

Reference: PMC4005675
